B1: TPP-1012 PD138G7(G109D)-6GS-HSA1-6GS-CD137D-His (bispecific antibody)
chain: EVQLVESGGGVVRPGGSLRLSCAASGFTFDDYAMSWVRQAPGKGLEWVSGITWNGGSTGYADSVKDRFTISRDNAKNSLYLQMNSLRAEDTALYYCVRDKYSYAWSYDDFDIWGQGTMVTVSSGGGGSGGGGSGGGGSGGGGSGGGGSGGGGSEVQLVESGGGLVQPGRSLRLSCAASGFTFHHYAMHWVRQAPGKGLEWVSGISWNGNKITYADSVKGRFTISRDNAKNSLYLQMNSLRAEDTALYYCVRDSSLFIVGAPTFEHWGRGTLVTVSSGGGGSGGGGSGGGGSGGGGSGGGGSGGGGSEVQLVESGGGVVQPGGSLRLSCAASGFTFSNYGMHWVRQAPGKGLEWVAVISNDGNTKTYADSVKGRFTISRDNSKNTLYLQMNSLRAEDTAVYYCAQDETTTVTASYYFDYWGQGTLVTVSSAAAHHHHHH
B2: TPP-983: CD137A-6GS-HSA2-6GS-PDA2-His (bispecific antibody)
chain: EVQLVESGGGLVQPGGSLRLSCAASGFTLSNYWMNWVRQAPGKGLEWVANINQDGSERYYVDSVKGRFTISRDNAKNSLYLQMNSLRAEDTAVYYCARGGEGYGVDHYGLDVSGQGTTVTVSSGGGGSGGGGSGGGGSGGGGSGGGGSGGGGSEVQLVESGGGLVKPGGSLRLSCAASGFTFSNYNMNWVRQAPGKGLEWVSSISSAGTHIYYADSVKGRFTISRDNAKNSLYLQMNSLRAEDTAVYYCARDPHSTGWYKDFDYWGQGTLVTVSSGGGGSGGGGSGGGGSGGGGSGGGGSGGGGSEVQLVESGGGVVRPGGSLRLSCAASGFTFDDYAMSWVRQAPGKGLEWVSGITWNAGSTGYADSVKGRFTISRDNAKNSLYLQMNSLRAEDTALYYCVRDKYSYAWSYDDFDIWGQGTMVTVSSAAAHHHHHH
B3: TPP-1008: PDA-6GS-HSA3-6GS-CD137D-His (bispecific antibody)
chain: EVQLVESGGGLVQPGRSLRLSCAASGFTFDDYALHWVRQAPGKDLEWVSGISWNGGSYGYADSVKGRFTISRDNAKNSLYLQMNSLRAEDTALYYCVREKGPGLTGSTADYYGLDAWGQGTMVTVSSGGGGSGGGGSGGGGSGGGGSGGGGSGGGGSEVQLLESGGGLVKPGGSLRLSCAASGFTVSSYTMNWVRQAPGKGLEWVSSISSSGRYIYYADSVKGRFTISRDNAKNSLYLQMNSLRAEDTAVYYCARDPRMVGNPHEFDIWGQGTMVTVSSGGGGSGGGGSGGGGSGGGGSGGGGSGGGGSEVQLVESGGGVVQPGGSLRLSCAASGFTFSNYGMHWVRQAPGKGLEWVAVISNDGNTKTYADSVKGRFTISRDNSKNTLYLQMNSLRAEDTAVYYCAQDETTTVTASYYFDYWGQGTLVTVSSAAAHHHHHH
B4: TPP-971: PDA2-6GS-HSA2-6GS-172E1-13-His (bispecific antibody)
chain: EVQLVESGGGVVRPGGSLRLSCAASGFTFDDYAMSWVRQAPGKGLEWVSGITWNAGSTGYADSVKGRFTISRDNAKNSLYLQMNSLRAEDTALYYCVRDKYSYAWSYDDFDIWGQGTMVTVSSGGGGSGGGGSGGGGSGGGGSGGGGSGGGGSEVQLVESGGGLVKPGGSLRLSCAASGFTFSNYNMNWVRQAPGKGLEWVSSISSAGTHIYYADSVKGRFTISRDNAKNSLYLQMNSLRAEDTAVYYCARDPHSTGWYKDFDYWGQGTLVTVSSGGGGSGGGGSGGGGSGGGGSGGGGSGGGGSEVQLVESGGGVVQPGGSLRLSCAASGFTFSNYGMHWVRQAPGKGLEWVAVISNDGNTKTYADSVKGRFTISRDNSKNTLYLQMNSLRAEDTAVYYCAQDETTTVTASYYFDYWGQGTLVTVSSAAAHHHHHH
B5: TPP-957; PD138G7(G109D)-6GS-172E1-13-6GS-HSA2-His (bispecific antibody)
chain: EVQLVESGGGVVRPGGSLRLSCAASGFTFDDYAMSWVRQAPGKGLEWVSGITWNGGSTGYADSVKDRFTISRDNAKNSLYLQMNSLRAEDTALYYCVRDKYSYAWSYDDFDIWGQGTMVTVSSGGGGSGGGGSGGGGSGGGGSGGGGSGGGGSEVQLVESGGGVVQPGGSLRLSCAASGFTFSNYGMHWVRQAPGKGLEWVAVISNDGNTKTYADSVKGRFTISRDNSKNTLYLQMNSLRAEDTAVYYCAQDETTTVTASYYFDYWGQGTLVTVSSGGGGSGGGGSGGGGSGGGGSGGGGSGGGGSEVQLVESGGGLVKPGGSLRLSCAASGFTFSNYNMNWVRQAPGKGLEWVSSISSAGTHIYYADSVKGRFTISRDNAKNSLYLQMNSLRAEDTAVYYCARDPHSTGWYKDFDYWGQGTLVTVSSAAAHHHHHH
B6: TPP-958: PD138G7(G109D)-6GS-172E1-13-6GS-HSA3-His (bispecific antibody)
chain: EVQLVESGGGVVRPGGSLRLSCAASGFTFDDYAMSWVRQAPGKGLEWVSGITWNGGSTGYADSVKDRFTISRDNAKNSLYLQMNSLRAEDTALYYCVRDKYSYAWSYDDFDIWGQGTMVTVSSGGGGSGGGGSGGGGSGGGGSGGGGSGGGGSEVQLVESGGGVVQPGGSLRLSCAASGFTFSNYGMHWVRQAPGKGLEWVAVISNDGNTKTYADSVKGRFTISRDNSKNTLYLQMNSLRAEDTAVYYCAQDETTTVTASYYFDYWGQGTLVTVSSGGGGSGGGGSGGGGSGGGGSGGGGSGGGGSEVQLLESGGGLVKPGGSLRLSCAASGFTVSSYTMNWVRQAPGKGLEWVSSISSSGRYIYYADSVKGRFTISRDNAKNSLYLQMNSLRAEDTAVYYCARDPRMVGNPHEFDIWGQGTMVTVSSAAAHHHHHH
B7: TPP-982: CD137A-6GS-HSA2-6GS-PDA-His (bispecific antibody)
chain: EVQLVESGGGLVQPGGSLRLSCAASGFTLSNYWMNWVRQAPGKGLEWVANINQDGSERYYVDSVKGRFTISRDNAKNSLYLQMNSLRAEDTAVYYCARGGEGYGVDHYGLDVSGQGTTVTVSSGGGGSGGGGSGGGGSGGGGSGGGGSGGGGSEVQLVESGGGLVKPGGSLRLSCAASGFTFSNYNMNWVRQAPGKGLEWVSSISSAGTHIYYADSVKGRFTISRDNAKNSLYLQMNSLRAEDTAVYYCARDPHSTGWYKDFDYWGQGTLVTVSSGGGGSGGGGSGGGGSGGGGSGGGGSGGGGSEVQLVESGGGLVQPGRSLRLSCAASGFTFDDYALHWVRQAPGKDLEWVSGISWNGGSYGYADSVKGRFTISRDNAKNSLYLQMNSLRAEDTALYYCVREKGPGLTGSTADYYGLDAWGQGTMVTVSSAAAHHHHHH
B8: TPP-975: CD137D-6GS-PDA2-6GS-HSA2-His (bispecific antibody)
chain: EVQLVESGGGVVQPGGSLRLSCAASGFTFSNYGMHWVRQAPGKGLEWVAVISNDGNTKTYADSVKGRFTISRDNSKNTLYLQMNSLRAEDTAVYYCAQDETTTVTASYYFDYWGQGTLVTVSSGGGGSGGGGSGGGGSGGGGSGGGGSGGGGSEVQLVESGGGVVRPGGSLRLSCAASGFTFDDYAMSWVRQAPGKGLEWVSGITWNAGSTGYADSVKGRFTISRDNAKNSLYLQMNSLRAEDTALYYCVRDKYSYAWSYDDFDIWGQGTMVTVSSGGGGSGGGGSGGGGSGGGGSGGGGSGGGGSEVQLVESGGGLVKPGGSLRLSCAASGFTFSNYNMNWVRQAPGKGLEWVSSISSAGTHIYYADSVKGRFTISRDNAKNSLYLQMNSLRAEDTAVYYCARDPHSTGWYKDFDYWGQGTLVTVSSAAAHHHHHH
B9: TPP-1011: PD138G7(G109D)-6GS-HSA3-6GS-CD137D-His (bispecific antibody)
chain: EVQLVESGGGVVRPGGSLRLSCAASGFTFDDYAMSWVRQAPGKGLEWVSGITWNGGSTGYADSVKDRFTISRDNAKNSLYLQMNSLRAEDTALYYCVRDKYSYAWSYDDFDIWGQGTMVTVSSGGGGSGGGGSGGGGSGGGGSGGGGSGGGGSEVQLLESGGGLVKPGGSLRLSCAASGFTVSSYTMNWVRQAPGKGLEWVSSISSSGRYIYYADSVKGRFTISRDNAKNSLYLQMNSLRAEDTAVYYCARDPRMVGNPHEFDIWGQGTMVTVSSGGGGSGGGGSGGGGSGGGGSGGGGSGGGGSEVQLVESGGGVVQPGGSLRLSCAASGFTFSNYGMHWVRQAPGKGLEWVAVISNDGNTKTYADSVKGRFTISRDNSKNTLYLQMNSLRAEDTAVYYCAQDETTTVTASYYFDYWGQGTLVTVSSAAAHHHHHH
B10: TPP-985: CD137D-6GS-HSA2-2-6GS-PDA2-His (bispecific antibody)
chain: EVQLVESGGGVVQPGGSLRLSCAASGFTFSNYGMHWVRQAPGKGLEWVAVISNDGNTKTYADSVKGRFTISRDNSKNTLYLQMNSLRAEDTAVYYCAQDETTTVTASYYFDYWGQGTLVTVSSGGGGSGGGGSGGGGSGGGGSGGGGSGGGGSEVQLVESGGGLVKPGGSLRLSCAASGFTFSNYNMNWVRQAPGKGLEWVSSISSAGTHIYYADSVKGRFTISRDNAKNSLYLQMNSLRAEDTAVYYCARDPHSTGWYKDFDYWGQGTLVTVSSGGGGSGGGGSGGGGSGGGGSGGGGSGGGGSEVQLVESGGGVVRPGGSLRLSCAASGFTFDDYAMSWVRQAPGKGLEWVSGITWNAGSTGYADSVKGRFTISRDNAKNSLYLQMNSLRAEDTALYYCVRDKYSYAWSYDDFDIWGQGTMVTVSSAAAHHHHHH
B11: TPP-984: CD137D-6GS-HSA2-6GS-PDA-His (bispecific antibody)
chain: EVQLVESGGGVVQPGGSLRLSCAASGFTFSNYGMHWVRQAPGKGLEWVAVISNDGNTKTYADSVKGRFTISRDNSKNTLYLQMNSLRAEDTAVYYCAQDETTTVTASYYFDYWGQGTLVTVSSGGGGSGGGGSGGGGSGGGGSGGGGSGGGGSEVQLVESGGGLVKPGGSLRLSCAASGFTFSNYNMNWVRQAPGKGLEWVSSISSAGTHIYYADSVKGRFTISRDNAKNSLYLQMNSLRAEDTAVYYCARDPHSTGWYKDFDYWGQGTLVTVSSGGGGSGGGGSGGGGSGGGGSGGGGSGGGGSEVQLVESGGGLVQPGRSLRLSCAASGFTFDDYALHWVRQAPGKDLEWVSGISWNGGSYGYADSVKGRFTISRDNAKNSLYLQMNSLRAEDTALYYCVREKGPGLTGSTADYYGLDAWGQGTMVTVSSAAAHHHHHH
B12: TPP-1009: PDA-6GS-hsa1-6GS-CD137D-His (bispecific antibody)
chain: EVQLVESGGGLVQPGRSLRLSCAASGFTFDDYALHWVRQAPGKDLEWVSGISWNGGSYGYADSVKGRFTISRDNAKNSLYLQMNSLRAEDTALYYCVREKGPGLTGSTADYYGLDAWGQGTMVTVSSGGGGSGGGGSGGGGSGGGGSGGGGSGGGGSEVQLVESGGGLVQPGRSLRLSCAASGFTFHHYAMHWVRQAPGKGLEWVSGISWNGNKITYADSVKGRFTISRDNAKNSLYLQMNSLRAEDTALYYCVRDSSLFIVGAPTFEHWGRGTLVTVSSGGGGSGGGGSGGGGSGGGGSGGGGSGGGGSEVQLVESGGGVVQPGGSLRLSCAASGFTFSNYGMHWVRQAPGKGLEWVAVISNDGNTKTYADSVKGRFTISRDNSKNTLYLQMNSLRAEDTAVYYCAQDETTTVTASYYFDYWGQGTLVTVSSAAAHHHHHH

biological target: human CD137 expressed on cells (Jurkat human CD137 NF-kB luciferase reporter cells; human CD8+ T cells) (human, UniProt Q07011 24-255); assay: cell-based or functional assay

Binder | Jurkat-CD137/CHO-PD-1 Reporter Assay EC50
B1 | 5.29 nM
B2 | 0.556 nM
B3 | 3.61 nM
B4 | 7.18 nM
B5 | 11 nM
B6 | 10.9 nM
B7 | 0.57 nM
B8 | 11.5 nM
B9 | 4.11 nM
B10 | 21.7 nM
B11 | 11.8 nM
B12 | 34.7 nM

From US20220220215A1 (CRESCENDO BIOLOGICS, published 2022)
